Here are results for three proteins from patent publication US20250064976A1 (BROAD INSTITUTE, published 2025).

Data set [1] deals with the molecule itself. In words: capsid formation (homo-oligomer).
Data set [2] deals with the molecule itself. The data set can be described thus: TEM of the HA-immunoprecipitated VLP fraction from HEK293FT cells.
Description: Successful isolation was confirmed by Coommassie staining and protein capsids were imaged using TEM as described previously.
Data set [3] deals with the molecule itself. In words: TEM of protein purified from E. coli.

B1: human paraneoplastic antigen Ma2 (PNMA2), recombinant, purified from E. coli (other)
chain: ALALLEDWCRIMSVDEQKSLMVTGIPADFEEAEIQEVLQETLKSLGRYRLLGKIFRKQENANAVLLELLEDTDVSAIPSEVQGKGGVWKVIFKTPNQDTEFLERLNLFLEKEGQTVSGMFRALGQEGVSPATVPCISPELLAHLLGQAMAHAPQPLLPMRYRKLRVFSGSAVPAPEEESFEVWLEQATEIVKEWPVTEAEKKRWLAESLRGPALDLMHIVQADNPSISVEECLEAFKQVFGSLESRRTAQVRYLKTYQEEGEKVSAYVLRLETLLRRAVEKRAIPRRIADQVRLEQVMAGATLNQMLWCRLRELKDQGPPPSFLELMKVIREEEEEEASFENESIEEPEERDGYGRWNHEGDD
notes: Written as the monomer; Only residues 158-340 were resolved by cryo-EM; also called PNMA2 monomer; wild-type PNMA2
For the protein B1, the binding result in data set [1] is given as “binds”.

B2: HA-tagged PNMA2 overexpressed in HEK293FT cells (other)
chain: ALALLEDWCRIMSVDEQKSLMVTGIPADFEEAEIQEVLQETLKSLGRYRLLGKIFRKQENANAVLLELLEDTDVSAIPSEVQGKGGVWKVIFKTPNQDTEFLERLNLFLEKEGQTVSGMFRALGQEGVSPATVPCISPELLAHLLGQAMAHAPQPLLPMRYRKLRVFSGSAVPAPEEESFEVWLEQATEIVKEWPVTEAEKKRWLAESLRGPALDLMHIVQADNPSISVEECLEAFKQVFGSLESRRTAQVRYLKTYQEEGEKVSAYVLRLETLLRRAVEKRAIPRRIADQVRLEQVMAGATLNQMLWCRLRELKDQGPPPSFLELMKVIREEEEEEASFENESIEEPEERDGYGRWNHEGDD
notes: also called HA-PNMA2; PNMA2-HA; not shown: HA tag at the N-terminus
In the case of B2, the binding result in data set [2] was “binds”.

B3: PNMA2(340)-CCMV(30), engineered PNMA2 (other)
chain: MALALLEDWCRIMSVDEQKSLMVTGIPADFEEAEIQEVLQETLKSLGRYRLLGKIFRKQENANAVLLELLEDTDVSAIPSEVQGKGGVWKVIFKTPNQDTEFLERLNLFLEKEGQTVSGMFRALGQEGVSPATVPCISPELLAHLLGQAMAHAPQPLLPMRYRKLRVFSGSAVPAPEEESFEVWLEQATEIVKEWPVTEAEKKRWLAESLRGPALDLMHIVQADNPSISVEECLEAFKQVFGSLESRRTAQVRYLKTYQEEGEKVSAYVLRLETLLRRAVEKRAIPRRIADQVRLEQVMAGATLNQMLWCRLRELKDQGPPPSFLELMKVIREEEEEEASMSTVGTGKLTRAQRRAAARKNKRNTRVVQP
notes: Written as the monomer; The disordered C-terminal region of PNMA2 is replaced by the N-terminal 30 residues of CCMV; It was purified from E. coli and forms capsids like wild-type PNMA2; also called ePNMA2; PNMA2(1-340)-CCMV
With B3, the binding result in data set [3] is “binds”.
